The values below are quoted from earlier work in patent publication US9879249B2, “Aldehyde-tagged protein-based drug carriers and methods of use” (Redwood Bioscience, Inc., priority 2009, dated 2018).

The conditions of the series: calcitonin peptide alone, unconjugated.

On to Calcitonin, for which the absorption half-life was 10 to 15 min and the elimination half-life is 50 to 80 min.
